What was measured:
[1] = molecular target: the molecule itself; experiment: crystal structure
[2] = molecular target: T1, VapC-3 toxin of Mtb VapBC-3 (Rv0300-Rv0301) (Mycobacterium tuberculosis, UniProt P9WFB9 2-141); experiment: crystal structure
T1 sequence: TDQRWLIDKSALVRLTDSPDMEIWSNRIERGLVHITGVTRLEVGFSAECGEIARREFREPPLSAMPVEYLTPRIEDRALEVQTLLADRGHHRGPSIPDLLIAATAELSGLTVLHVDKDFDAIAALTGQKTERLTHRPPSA

[3] = molecular target: the molecule itself; experiment: crystal structure; remark: listed apart in the source
[4] = molecular target: the molecule itself; experiment: dynamic light scattering

B1: Mtb fumarase (enzyme)
chain: MAVDADSANYRIEHDTMGEVRVPAKALWRAQTQRAVENFPISGRGLERTQIRALGLLKGACAQVNSDLGLLAPEKADAIIAAAAEIADGQHDDQFPIDVFQTGSGTSSNMNTNEVIASIAAKGGVTLHPNDDVNMSQSSNDTFPTATHIAATEAAVAHLIPALQQLHDALAAKALDWHTVVKSGRTHLMDAVPVTLGQEFSGYARQIEAGIERVRACLPRLGELAIGGTAVGTGLNAPDDFGVRVVAVLVAQTGLSELRTAANSFEAQAARDGLVEASGALRTIAVSLTKIANDIRWMGSGPLTGLAEIQLPDLQPGSSIMPGKVNPVLPEAVTQVAAQVIGNDAAIAWGGANGAFELNVYIPMMARNILESFKLLTNVSRLFAQRCIAGLTANVEHLRRLAESSPSIVTPLNSAIGYEEAAAVAKQALKERKTIRQTVIDRGLIGDRLSIEDLDRRLDVLAMAKAEQLDSDRL
With B1 the “stoichiometry N” value [1] was 4.

B2: VapB-3 antitoxin of Mtb VapBC-3 (Rv0300-Rv0301) (natural protein)
chain: MSDVLIRDIPDDVLASLDAIAARLGLSRTEYIRRRLAQDAQTARVTVTAADLRRLRGAVAGLGDPELMRQAWR
B2: binds [2]; binds [3].

B3: Rv0812, putative Mtb 4-amino-4-deoxychorismate (ADC) lyase (PabC) (enzyme)
chain: MVVTLDGEILQPGMPLLHADDLAAVRGDGVFETLLVRDGRACLVEAHLQRLTQSARLMDLPEPDLPRWRRAVEVATQRWVASTADEGALRLIYSRGREGGSAPTAYVMVSPVPARVIGARRDGVSAITLDRGLPADGGDAMPWLIASAKTLSYAVNMAVLRHAARQGAGDVIFVSTDGYVLEGPRSTVVIATDGDQGGGNPCLLTPPPWYPILRGTTQQALFEVARAKGYDCDYRALRVADLFDSQGIWLVSSMTLAARVHTLDGRRLPRTPIAEVFAELVDAAIVSDR
For B3, the “stoichiometry N” value [4] was 2.

Reference: article PMC3310434 (Tuberculosis (Edinburgh, Scotland), 2011)
